Experimental data from publication PMC11705820.
Residue numbers refer to the chain shown, from its start.

Experiments:
[1] = biological target: T1, MexR Gln55Pro Q55P (Pseudomonas aeruginosa clinical isolate Pae d14 Green) (UniProt P52003); experiment: EMSA
T1 sequence: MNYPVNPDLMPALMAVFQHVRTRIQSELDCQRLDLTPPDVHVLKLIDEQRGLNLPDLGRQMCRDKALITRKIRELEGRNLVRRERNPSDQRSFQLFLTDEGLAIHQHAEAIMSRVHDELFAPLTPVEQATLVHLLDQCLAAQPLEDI

[2] = biological target: T2, MexR wild-type (Pseudomonas aeruginosa clinical isolate Pae d1 Green) (UniProt P52003); experiment: EMSA
T2 sequence: T1 sequence with P55Q

Question: Which binding [1] does the source give for “GTTGCATAGCGTTGTCCTCATGAGCGAAAGCGGCCGATGCAGCGTGAAGGCGCTGCACCGGCTCGAAGAAGGCAGGCAAAATACTTACATTCATAGGTGTTTGTAAACGTCCGAAAGCCTCGCGTGAAAACACCTGAAACGTTTTAGCTCGATGGCCGGTTATCCACCCGGCGCCATGGCCCATATTCAGAACCTGAAACAAGGTTGATAAGGTCAACTAAAATAAGCAAAATAGTTGACTGGATCAACCACATTTACATTAGGTTTACTCGGCCAAACCAATGAACTACC (double strand) [mexR-mexAB intergenic region 291 bp]” here?
Answer: no binding

Question: What about the binding [2] of the same sequence?
Answer: binds
